Data published in patent US20230144436A1, “MUSCLE TARGETING COMPLEXES AND USES THEREOF FOR TREATING MYOTONIC DYSTROPHY” (Dyne Therapeutics, Inc., priority 2020, published 2023).

Target: human transferrin receptor 1 (human) (UniProt P02786)
Assay: Carterra LSA SPR array, IgG captured on anti-IgG lawn, hTfR1 as analyte, 25 C, 1:1 Langmuir fit

Sequence of human transferrin receptor 1 (human) (P02786 89-760 limits assumed): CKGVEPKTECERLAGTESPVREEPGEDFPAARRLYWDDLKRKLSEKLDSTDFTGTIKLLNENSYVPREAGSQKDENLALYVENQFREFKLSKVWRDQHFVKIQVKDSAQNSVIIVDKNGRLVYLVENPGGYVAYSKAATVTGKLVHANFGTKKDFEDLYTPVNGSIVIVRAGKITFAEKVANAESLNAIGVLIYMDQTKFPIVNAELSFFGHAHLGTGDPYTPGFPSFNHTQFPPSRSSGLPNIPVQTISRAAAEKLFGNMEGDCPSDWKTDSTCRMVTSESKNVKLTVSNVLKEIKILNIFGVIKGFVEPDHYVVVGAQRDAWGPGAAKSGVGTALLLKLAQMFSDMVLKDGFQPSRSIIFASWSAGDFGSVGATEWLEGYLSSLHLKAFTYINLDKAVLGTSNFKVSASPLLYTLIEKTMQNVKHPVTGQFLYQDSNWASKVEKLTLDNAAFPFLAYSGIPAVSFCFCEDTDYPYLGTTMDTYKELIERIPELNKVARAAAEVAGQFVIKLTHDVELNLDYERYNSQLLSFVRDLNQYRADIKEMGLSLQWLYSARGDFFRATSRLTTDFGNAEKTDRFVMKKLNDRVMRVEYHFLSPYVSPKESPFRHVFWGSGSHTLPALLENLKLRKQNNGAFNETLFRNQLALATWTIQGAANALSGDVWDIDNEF

With OKT9 (antibody) as the substance, how does the Kd read?
Its Kd is 0.536 nM.

What about the kon of the same substance?
Its kon is 774000 M⁻¹ s⁻¹.
